Assay results published in IntAct's records for PubMed 21505419.

B1: Suppressor protein STP22 of temperature-sensitive alpha-factor receptor and arginine permease (Saccharomyces cerevisiae), P25604 (parent)
chain: MSANGKISVPEAVVNWLFKVIQPIYNDGRTTFHDSLALLDNFHSLRPRTRVFTHSDGTPQLLLSIYGTISTGEDGSSPHSIPVIMWVPSMYPVKPPFISINLENFDMNTISSSLPIQEYIDSNGWIALPILHCWDPAAMNLIMVVQELMSLLHEPPQDQAPSLPPKPNTQLQQEQNTPPLPPKPKSPHLKPPLPPPPPPQPASNALDLMDMDNTDISPTNHHEMLQNLQTVVNELYREDVDYVADKILTRQTVMQESIARFHEIIAIDKNHLRAVEQAIEQTMHSLNAQIDVLTANRAKVQQFSSTSHVDDEDVNSIAVAKTDGLNQLYNLVAQDYALTDTIECLSRMLHRGTIPLDTFVKQGRELARQQFLVRWHIQRITSPLS
partner: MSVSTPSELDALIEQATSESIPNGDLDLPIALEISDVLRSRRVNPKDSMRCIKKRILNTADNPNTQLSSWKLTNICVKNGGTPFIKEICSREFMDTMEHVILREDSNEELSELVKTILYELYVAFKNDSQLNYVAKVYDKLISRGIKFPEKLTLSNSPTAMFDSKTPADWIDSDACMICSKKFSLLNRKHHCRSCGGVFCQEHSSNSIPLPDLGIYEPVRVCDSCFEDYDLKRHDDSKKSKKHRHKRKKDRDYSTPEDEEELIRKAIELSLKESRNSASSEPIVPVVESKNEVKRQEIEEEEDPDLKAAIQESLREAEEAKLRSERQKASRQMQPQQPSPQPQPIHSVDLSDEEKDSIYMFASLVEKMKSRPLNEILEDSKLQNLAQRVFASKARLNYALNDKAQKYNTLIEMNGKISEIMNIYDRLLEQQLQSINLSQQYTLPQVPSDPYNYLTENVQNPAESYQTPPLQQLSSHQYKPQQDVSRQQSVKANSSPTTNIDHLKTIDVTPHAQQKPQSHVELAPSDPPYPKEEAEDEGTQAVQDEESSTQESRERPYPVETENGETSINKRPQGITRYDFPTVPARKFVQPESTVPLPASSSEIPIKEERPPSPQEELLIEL

Variants of: B1
Details: with vps27_yeast VPS27, P40343

| Variant | effect of a mutation on the interaction |
| --- | --- |
| MSANGKISVPEAVVNWLFKVIQPIYNDGRTTFHDSLALLDNFHSLRPRTRVFTHSDGTPQNLLSIYGTISTGEDGSSPHSIPVIMWVPSMYPVKPPFISINLENFDMNTISSSLPIQEYIDSNGWIALPILHCWDPAAMNLIMVVQELMSLLHEPPQDQAPSLPPKPNTQLQQEQNTPPLPPKPKSPHLKPPLPPPPPPQPASNALDLMDMDNTDISPTNHHEMLQNLQTVVNELYREDVDYVADKILTRQTVMQESIARFHEIIAIDKNHLRAVEQAIEQTMHSLNAQIDVLTANRAKVQQFSSTSHVDDEDVNSIAVAKTDGLNQLYNLVAQDYALTDTIECLSRMLHRGTIPLDTFVKQGRELARQQFLVRWHIQRITSPLS [L61N] | decreasing interaction |

Variants of: B1
Details: with vps27_yeast VPS27, P40343
Remark: another data set of the same source

| Variant | effect of a mutation on the interaction |
| --- | --- |
| MSANGKISVPEAVVNALFKVIQPIYNDGRTTFHDSLALLDNFHSLRPRTRVFTHSDGTPQLLLSIYGTISTGEDGSSPHSIPVIMWVPSMYPVKPPFISINLENFDMNTISSSLPIQEYIDSNGWIALPILHCWDPAAMNLIMVVQELMSLLHEPPQDQAPSLPPKPNTQLQQEQNTPPLPPKPKSPHLKPPLPPPPPPQPASNALDLMDMDNTDISPTNHHEMLQNLQTVVNELYREDVDYVADKILTRQTVMQESIARFHEIIAIDKNHLRAVEQAIEQTMHSLNAQIDVLTANRAKVQQFSSTSHVDDEDVNSIAVAKTDGLNQLYNLVAQDYALTDTIECLSRMLHRGTIPLDTFVKQGRELARQQFLVRWHIQRITSPLS [W16A] | disrupting interaction |

Variants of: B1
Details: with vps27_yeast VPS27, P40343
Remark: another data set of the same source

| Variant | effect of a mutation on the interaction |
| --- | --- |
| MSANGKISVPEAVVNWLFKVIQPIYNDGRTTFHDSLALLDNFHSLRPRVRVFTHSDGTPQLLLSIYGTISTGEDGSSPHSIPVIMWVPSMYPVKPPFISINLENFDMNTISSSLPIQEYIDSNGWIALPILHCWDPAAMNLIMVVQELMSLLHEPPQDQAPSLPPKPNTQLQQEQNTPPLPPKPKSPHLKPPLPPPPPPQPASNALDLMDMDNTDISPTNHHEMLQNLQTVVNELYREDVDYVADKILTRQTVMQESIARFHEIIAIDKNHLRAVEQAIEQTMHSLNAQIDVLTANRAKVQQFSSTSHVDDEDVNSIAVAKTDGLNQLYNLVAQDYALTDTIECLSRMLHRGTIPLDTFVKQGRELARQQFLVRWHIQRITSPLS [T49V] | decreasing interaction |
